In patent US20210253718A1 (MODMAB THERAPEUTICS, published 2021):

T1: FZD8 cysteine-rich domain (CRD), MYC-tagged and GPI-anchored on CHO cells (human, UniProt Q498S8 31-155 (rat entry), GPI anchor)
T1 construct: also called FZD8 CRD; CHO-myc-FZDGPI; not shown: MYC tag and GPI anchor signal
T1 sequence: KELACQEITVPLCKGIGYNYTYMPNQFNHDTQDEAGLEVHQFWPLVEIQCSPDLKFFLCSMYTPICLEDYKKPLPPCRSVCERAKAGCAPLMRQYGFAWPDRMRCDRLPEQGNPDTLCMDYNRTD

T2: FZD9 cysteine-rich domain (CRD), MYC-tagged and GPI-anchored on CHO cells (human, UniProt O00144 35-161, GPI anchor)
T2 construct: also called FZD9 CRD; CHO-myc-FZDGPI; not shown: MYC tag and GPI anchor signal
T2 sequence: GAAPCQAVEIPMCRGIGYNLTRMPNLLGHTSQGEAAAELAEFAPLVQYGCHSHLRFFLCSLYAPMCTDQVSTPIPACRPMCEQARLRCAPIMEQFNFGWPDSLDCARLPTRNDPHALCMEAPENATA

T3: FZD5 cysteine-rich domain (CRD), MYC-tagged and GPI-anchored on CHO cells (human, UniProt Q13467 29-156, GPI anchor)
T3 construct: also called FZD5 CRD; CHO-myc-FZDGPI; not shown: MYC tag and GPI anchor signal
T3 sequence: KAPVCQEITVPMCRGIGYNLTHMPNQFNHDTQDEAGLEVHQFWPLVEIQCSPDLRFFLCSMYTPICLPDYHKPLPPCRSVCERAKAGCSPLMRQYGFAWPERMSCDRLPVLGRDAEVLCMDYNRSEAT

T4: FZD6 cysteine-rich domain (CRD), MYC-tagged and GPI-anchored on CHO cells (human, UniProt O60353 20-146, GPI anchor)
T4 construct: also called FZD6 CRD; CHO-myc-FZDGPI; not shown: MYC tag and GPI anchor signal
T4 sequence: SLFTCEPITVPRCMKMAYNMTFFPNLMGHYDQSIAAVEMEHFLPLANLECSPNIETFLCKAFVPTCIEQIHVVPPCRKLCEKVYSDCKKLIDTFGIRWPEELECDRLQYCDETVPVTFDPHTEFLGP

T5: FZD10 cysteine-rich domain (CRD), MYC-tagged and GPI-anchored on CHO cells (human, UniProt Q9ULW2 30-156, GPI anchor)
T5 construct: also called FZD10 CRD; CHO-myc-FZDGPI; not shown: MYC tag and GPI anchor signal
T5 sequence: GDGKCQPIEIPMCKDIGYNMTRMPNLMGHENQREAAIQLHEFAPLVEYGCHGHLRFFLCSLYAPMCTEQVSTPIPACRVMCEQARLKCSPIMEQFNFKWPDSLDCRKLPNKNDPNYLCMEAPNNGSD

T6: FZD3 cysteine-rich domain (CRD), MYC-tagged and GPI-anchored on CHO cells (human, UniProt Q9NPG1 24-150, GPI anchor)
T6 construct: domain: cysteine-rich domain (CRD); also called FZD3 CRD; CHO-myc-FZDGPI; not shown: MYC tag and GPI anchor signal
T6 sequence (looked up): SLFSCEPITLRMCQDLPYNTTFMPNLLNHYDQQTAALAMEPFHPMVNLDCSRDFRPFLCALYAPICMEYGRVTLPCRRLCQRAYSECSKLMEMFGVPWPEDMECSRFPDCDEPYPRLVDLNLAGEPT

T7: FZD4 cysteine-rich domain (CRD), MYC-tagged and GPI-anchored on CHO cells (human, UniProt Q9ULV1 42-167, GPI anchor)
T7 construct: also called FZD4 CRD; CHO-myc-FZDGPI; not shown: MYC tag and GPI anchor signal
T7 sequence: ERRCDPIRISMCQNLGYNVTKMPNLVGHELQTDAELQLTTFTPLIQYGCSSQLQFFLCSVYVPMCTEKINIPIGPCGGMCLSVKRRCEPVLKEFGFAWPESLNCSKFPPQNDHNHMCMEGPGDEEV


Experiments:
[1] = target: T1, FZD8 cysteine-rich domain (CRD), …; experiment: flow cytometry, CHO-CRD cells;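 further: flow cytometry of Fab binding to CHO cells overexpressing a Frizzled CRD, with binding defined as median fluorescence over twice that of CHO cells lacking any Frizzled CRD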
Procedure: (§1) Binding was measured via flow cytometry analysis of CHO cells overexpressing CRD of FZD1, FZD2, FZD3, FZD4, FZD5, FZD6, FZD7, FZD8, FZD9 or FZD10. Median fluorescence values are shown.

[2] = target: FZD7 cysteine-rich domain (CRD), MYC-tagged and GPI-anchored on CHO cells (human, UniProt O75084 45-169); experiment: flow cytometry, CHO-CRD cells;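 further: flow cytometry of Fab binding to CHO cells overexpressing a Frizzled CRD, with binding defined as median fluorescence over twice that of CHO cells lacking any Frizzled CRD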
Procedure: as §1

[3] = target: T2, FZD9 cysteine-rich domain (CRD), …; experiment: flow cytometry, CHO-CRD cells;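 further: flow cytometry of Fab binding to CHO cells overexpressing a Frizzled CRD, with binding defined as median fluorescence over twice that of CHO cells lacking any Frizzled CRD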
Procedure: as §1

[4] = target: T3, FZD5 cysteine-rich domain (CRD), …; experiment: flow cytometry, CHO-CRD cells;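 further: flow cytometry of Fab binding to CHO cells overexpressing a Frizzled CRD, with binding defined as median fluorescence over twice that of CHO cells lacking any Frizzled CRD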
Procedure: as §1

[5] = target: FZD2 cysteine-rich domain (CRD), MYC-tagged and GPI-anchored on CHO cells (human, UniProt Q14332 35-161); experiment: flow cytometry, CHO-CRD cells
Procedure: as §1

[6] = target: T4, FZD6 cysteine-rich domain (CRD), …; experiment: flow cytometry, CHO-CRD cells
Procedure: as §1

[7] = target: T5, FZD10 cysteine-rich domain (CRD), …; experiment: flow cytometry, CHO-CRD cells
Procedure: as §1

[8] = target: FZD1 cysteine-rich domain (CRD), MYC-tagged and GPI-anchored on CHO cells (human); experiment: flow cytometry, CHO-CRD cells
Procedure: as §1

[9] = target: T6, FZD3 cysteine-rich domain (CRD), …; experiment: flow cytometry, CHO-CRD cells
Procedure: as §1

[10] = target: T2, FZD9 cysteine-rich domain (CRD), …; experiment: immunofluorescence, CHO-CRD cells
[11] = target: T4, FZD6 cysteine-rich domain (CRD), …; experiment: immunofluorescence, CHO-CRD cells
[12] = target: T5, FZD10 cysteine-rich domain (CRD), …; experiment: immunofluorescence, CHO-CRD cells
[13] = target: T6, FZD3 cysteine-rich domain (CRD), …; experiment: immunofluorescence, CHO-CRD cells
[14] = target: T7, FZD4 cysteine-rich domain (CRD), …; experiment: flow cytometry, CHO-CRD cells
Procedure: as §1

[15] = target: T7, FZD4 cysteine-rich domain (CRD), …; experiment: immunofluorescence, CHO-CRD cells

Binder | median fluorescence [1] | median fluorescence [2] | median fluorescence [3] | median fluorescence [4] | median fluorescence [5] | median fluorescence [6] | median fluorescence [7] | median fluorescence [8] | median fluorescence [9] | binding result [10] | binding result [11] | binding result [12] | binding result [13] | median fluorescence [14] | binding result [15]
Fab-2904 (Fab, V domains shown, Fab; also called Fv-2904) VH: EVQLVESGGGLVQPGGSLRLSCAASGFNIYSYSMHWVRQAPGKGLEWVAYISSSYGYTSYADSVKGRFTISADTSKNTAYLQMNSLRAEDTAVYYCARSWYAWAMDYWGQGTLVTVSS VL: DIQMTQSPSSLSASVGDRVTITCRASQSVSSAVAWYQQKPGKAPKLLIYSASSLYSGVPSRFSGSRSGTDFTLTISSLQPEDFATYYCQQSSYSLITFGQGTKVEIK | 10.1 | 42.9 | 3.37 | 29.7 | 12 | 3.59 | 3.43 | 15.5 | 4.14 | no binding | no binding | no binding | no binding | – | –
Fab-2930 (Fab, V domains shown, Fab; also called Fv-2930) VH: EVQLVESGGGLVQPGGSLRLSCAASGFNLSYYYIHWVRQAPGKGLEWVASIYPYSGSTSYADSVKGRFTISADTSKNTAYLQMNSLRAEDTAVYYCARGALDYWGQGTLVTVSS VL: DIQMTQSPSSLSASVGDRVTITCRASQSVSSAVAWYQQKPGKAPKLLIYSASSLYSGVPSRFSGSRSGTDFTLTISSLQPEDFATYYCQQWYGPYLITFGQGTKVEIK | 13.8 | 22.2 | 4.87 | 33.1 | – | 3.79 | 4.37 | 30.1 | 6.26 | no binding | no binding | no binding | no binding | – | –
Fab-2899 (Fab, V domains shown, Fab; also called Fv-2899) VH: EVQLVESGGGLVQPGGSLRLSCAASGFNLYYYYMHWVRQAPGKGLEWVASIYPSSGSTSYADSVKGRFTISADTSKNTAYLQMNSLRAEDTAVYYCARGALDYWGQGTLVTVSS VL: DIQMTQSPSSLSASVGDRVTITCRASQSVSSAVAWYQQKPGKAPKLLIYSASSLYSGVPSRFSGSRSGTDFTLTISSLQPEDFATYYCQQWYSSYGLITFGQGTKVEIK | 12.8 | 54.2 | 4.7 | 33.7 | 20.7 | 4.37 | 5 | 19.5 | 7.91 | no binding | no binding | no binding | no binding | – | –
Fab-2912 (Fab, V domains shown, Fab; also called Fv-2912) VH: EVQLVESGGGLVQPGGSLRLSCAASGFNISYSYIHWVRQAPGKGLEWVASISSSSGYTSYADSVKGRFTISADTSKNTAYLQMNSLRAEDTAVYYCARTVRGSKKPYFSGWAMDYWGQGTLVTVSS VL: DIQMTQSPSSLSASVGDRVTITCRASQSVSSAVAWYQQKPGKAPKLLIYSASSLYSGVPSRFSGSRSGTDFTLTISSLQPEDFATYYCQQFYFPYLITFGQGTKVEIK | 7.57 | 56.7 | 4.45 | 32.2 | 19.8 | 4.1 | 3.82 | 41 | 4.61 | no binding | no binding | no binding | no binding | 47 | –
Fab-2933 (Fab, V domains shown, Fab; also called Fv-2933) VH: EVQLVESGGGLVQPGGSLRLSCAASGFNLYSSYMHWVRQAPGKGLEWVASIYSSYGYTSYADSVKGRFTISADTSKNTAYLQMNSLRAEDTAVYYCARTVRGSKKPYFSGWAMDYWGQGTLVTVSS VL: DIQMTQSPSSLSASVGDRVTITCRASQSVSSAVAWYQQKPGKAPKLLIYSASSLYSGVPSRFSGSRSGTDFTLTISSLQPEDFATYYCQQFWWYASWLFTFGQGTKVEIK | 26.7 | 8.74 | 143 | 34.9 | – | 4.1 | 21.1 | 14.5 | 4.1 | – | no binding | – | no binding | 46.4 | –
Fab-2907 (Fab, V domains shown, Fab; also called Fv-2907) VH: EVQLVESGGGLVQPGGSLRLSCAASGFNIYSSYMHWVRQAPGKGLEWVASISSYSGSTYYADSVKGRFTISADTSKNTAYLQMNSLRAEDTAVYYCARSSWGAYIVSYGFDYWGQGTLVTVSS VL: DIQMTQSPSSLSASVGDRVTITCRASQSVSSAVAWYQQKPGKAPKLLIYSASSLYSGVPSRFSGSRSGTDFTLTISSLQPEDFATYYCQQVGYWWGLITFGQGTKVEIK | – | – | 2.86 | – | – | 3.06 | 2.76 | – | 3.79 | no binding | no binding | no binding | no binding | 3.96 | no binding
Fab-2925 (Fab, V domains shown, Fab; also called Fv-2925) VH: EVQLVESGGGLVQPGGSLRLSCAASGFNLSYSSMHWVRQAPGKGLEWVASIYPSYGSTYYADSVKGRFTISADTSKNTAYLQMNSLRAEDTAVYYCARYGYFGLDYWGQGTLVTVSS VL: DIQMTQSPSSLSASVGDRVTITCRASQSVSSAVAWYQQKPGKAPKLLIYSASSLYSGVPSRFSGSRSGTDFTLTISSLQPEDFATYYCQQAWVYASLFTFGQGTKVEIK | – | – | 3.31 | 37.5 | – | 3.05 | 4.53 | – | 3.92 | no binding | no binding | no binding | no binding | 4.53 | no binding
